In this assay the target is T1, heat shock cognate 70 (Hsc70), human constitutively expressed Hsp70, wild type (human, UniProt P11142 1-646).
T1 construct: Hsc70, the human constitutively expressed Hsp70; also called WT Hsc70; His-Hsc70 (before cleavage); source: E. coli Rosetta (DE3), purified (Ni-NTA, TEV cleavage, second Ni-NTA)
Nature of the assay: NMR titration; methyl-TROSY (1H-13C HMQC) spectra of Ile δ1-13CH3-labeled Hsc70 (40 μM) without and with unlabeled peptide; 10 mM potassium phosphate pD 7.4, 5 mM DTT, D2O, 25 °C, 600 MHz. The settings on record: both partners purified.

T1 sequence (P11142 whole entry): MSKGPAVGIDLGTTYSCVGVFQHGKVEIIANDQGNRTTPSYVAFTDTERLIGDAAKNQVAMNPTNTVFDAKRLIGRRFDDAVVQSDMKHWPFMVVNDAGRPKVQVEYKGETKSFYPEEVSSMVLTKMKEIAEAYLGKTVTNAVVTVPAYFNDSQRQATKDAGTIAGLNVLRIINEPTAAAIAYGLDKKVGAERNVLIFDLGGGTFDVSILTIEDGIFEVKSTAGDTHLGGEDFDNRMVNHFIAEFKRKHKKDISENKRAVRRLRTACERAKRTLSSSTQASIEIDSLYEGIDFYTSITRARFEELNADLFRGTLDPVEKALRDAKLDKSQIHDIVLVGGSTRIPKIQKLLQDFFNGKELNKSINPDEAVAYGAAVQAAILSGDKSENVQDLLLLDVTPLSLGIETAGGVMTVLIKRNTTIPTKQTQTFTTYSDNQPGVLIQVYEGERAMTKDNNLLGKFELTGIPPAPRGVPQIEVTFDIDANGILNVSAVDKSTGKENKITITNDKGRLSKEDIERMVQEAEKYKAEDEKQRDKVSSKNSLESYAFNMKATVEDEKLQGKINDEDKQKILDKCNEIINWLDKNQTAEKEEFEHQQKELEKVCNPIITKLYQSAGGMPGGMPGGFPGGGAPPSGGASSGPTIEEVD

B1: SNNP peptide of SNAP-25 (peptide)
peptide: RRMLQLVEESK
notes: also called SNN peptide; source: synthetic peptide
For B1, the binding result was “binds”.

B2: SNCP peptide of SNAP-25 (LOOP-SNC site) (peptide)
peptide: EREQMAISGGFIRR
notes: also called SNC peptide; LOOP-SNC peptide; source: synthetic peptide
With B2, the binding result is “binds”.

These data come from publication PMC11697113, “The Hsc70 system maintains the synaptic SNARE protein SNAP-25 in an assembly-competent state and delays its aggregation [image fx2.gif]” (The Journal of Biological Chemistry, 2024).
